Test results from the supplement of paper PMC12042874.
± gives the uncertainty stated by the source.

Test: amyloid nucleation score (Sup35N fusion, yeast selection) (log enrichment); library NNK3; higher = more nucleation; inactive = no reads after selection
Method in brief: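 Nucleation score is defined as the DiMSum log enrichment of output over input reads, with centring on the mode score of non-aggregating sequences. A minimum of 100 input reads was required for each sequence. Reads came from Illumina sequencing of plasmid inserts from psi-negative yeast expressing Sup35N fused to peptides of 20 random codons, induced with 100 μM copper sulfate for 24 hours and grown 7 days at 30°C on medium lacking adenine and uracil.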

Substance	amyloid nucleation score
FMTSEWRMGMYGVSGRITWE	0.73 ± 0.24
LFFSRS	inactive
RSTWEQ	inactive
SCAECDMRWHMGGCICFVLG	inactive
KYGVLLRIHR	0.499 ± 0.72
SKHYN	inactive
SWVHGERLMHDCQTLLLYSW	inactive
YFPGGTLDY	inactive
WVRRYV	inactive
LSPQSIVSYYTLWTFGFTAC	-0.28 ± 0.77
FPSSMGRQYIGVCKYLSDPP	inactive
TCQILRYIRSLLRMLIWCYY	-0.418 ± 0.8
TGSVFVKDGTLWPTCVDLIG	inactive
SRQARCKPCVSCWDRCMWMI	inactive
SLLLTSWESVYIMRGLDRTI	0.086 ± 0.42
YLYLWSFCMSMVGFSIYRES	inactive
HLSSNVLNYVLNFHWFCNFG	0.836 ± 0.16
SSFGTQLYWNMSKCRFTRGT	1.16 ± 0.16
VRIKFCAWKLGYGSTGNVHI	0.657 ± 0.2
KIWFCNWFANNYFMIANSST	0.627 ± 0.11
YCFNLFRSARRGDGCAMIGC	inactive
WLARTRRVVLRNLVLAVTCI	inactive
SSLKWYTHPAMCYAHTWSIT	inactive
YPNMWLDEYRMVFAYYLPCG	inactive

Substance	amyloid nucleation score
CWSSIYSNDQDFYWKSPLLS	inactive
PTATRGPMTLRSHASHHRTL	inactive
GVVANFSLPLSAVFAWRSFR	2.78 ± 0.055
EGHGGTRLSHRA	inactive
LFMINLDPASMVHMTPCFTN	inactive
VCDSHQ	inactive
GCLYVW	inactive
GPNLLWDRGGPVNSCASKEA	inactive
FMYDYLAHLPGDFVNNSCRR	inactive
WSVSTQFPCFMSGSIGYNMS	inactive
RDRPKFII	inactive
NVDHRTKSWLINWFTSLELL	inactive
CGIRHTVLVVSRVGGYVWCL	-0.156 ± 1.1
TIVRY	1.1 ± 0.21
TRLDGHTYMFTL	inactive
GSKDYQPSYIPWYNFACFKG	-0.594 ± 0.96
RVRLIH	inactive
FNFTVSRVPISVMVLQKRRK	1.18 ± 0.086
WKLASVFAVSMR	inactive
QARIWSSSVGAFSNCHSCRC	inactive
MSSISIKGKIYDWMFRFCCR	inactive
LVYPSFLLFKSIASHDSTGD	inactive
ETWLKTINRLGLNRSHLSIL	inactive
ISQFHYLGRIST	inactive

Substance	amyloid nucleation score
DIRRSYTLVRTGFTV	inactive
VIFKKGLRLFTSSCDWSISD	inactive
VPFVRVNDALVVVSLWDKVL	inactive
YLRDF	inactive
GLMRDCTTAMIGENDAFWSD	inactive
TFYDNLSDRLFSWS	inactive
AEQCEPLWCFWKKRSL	0.792 ± 0.18
LSLNSEVFGLSSTSNTVPFD	inactive
VYFENSGFTTVTREACLY	inactive
SKVGSWYDAT	-0.506 ± 1.1
PPKGKSWMLIVVNRLGEDEQ	inactive
VNYDSLPVLRPGSEGGVLFN	inactive
SGCLFAYSWSGCTLVRYDVF	-0.416 ± 0.45
MKVLYDKVKSVTASIELWFW	inactive
FTQYFLTRCDYYVEYYMLDR	inactive
PLPPPRKAMASLFVFLAWMA	inactive
VKGIEVNRLMFEERISGCYV	inactive
MLSSCRVFRLFCFNCVTLNR	0.816 ± 0.16
LVGFRTGTALLDQMAL	inactive
FLLEYYVCMFAVWSIWGMGH	0.317 ± 0.75
KGYRINSNFNKFNKPLCSAI	inactive
YYSVMCRVRVA	inactive
SRKVRGYLLMTNFVCLSNYV	inactive
VDFRYCCGFV	0.824 ± 0.26

Substance	amyloid nucleation score
VSSEGYIADTA	0.292 ± 0.57
VWSVHSHTQPMHSWSVRSAG	inactive
AAPKGGYPVLCCSVRTGRN	0.804 ± 0.13
GTIYMFENGSSVS	inactive
LVSCK	inactive
IDRHAPSEESVPFWSYWNNG	inactive
IYDRMGGHL	inactive
LRNLNK	inactive
VAKVNCTW	-0.431 ± 0.9
SGTNLFRF	inactive
NYSRPEL	0.782 ± 0.17
ALWYENDCRWLDEVHRARTG	inactive
SACEMWATRHKNWRASGYNH	inactive
DLVTSTGYSGVNAVSDIEDF	inactive
GLSRCSPWKASSDDRRRLSD	inactive
HFEIVSVANKITYCLCQQML	2.28 ± 0.075
CDHFQWYFLDRCLSVRCMIF	0.054 ± 0.36
SVYGIYGSNYMNTFVVVLVG	inactive
LVHDLDLCSPGVSYQKSRMS	inactive
FISRRIRNVILWCYFM	inactive
YMLCC	inactive
LYVVWYSHPWTEYFACSLVA	inactive
DMHGRSNNLW	inactive
GLHLIFFSYHRWHVTLK	inactive

Substance	amyloid nucleation score
LCVMCCATSFSHVCILIYRI	inactive
YRDTICPYETAREDMNYLLG	inactive
LDFRSVTDVWSCYI	inactive
IFSHSSPYNTPRK	inactive
GSVGTNCSGFVAPELRSPRC	inactive
YVIITGRKQGITNM	inactive
WWKSLLTRWRCLPPRK	-0.307 ± 0.62
SLVLNSMMRTTNKNGNEGYV	inactive
GLLANWYVQH	inactive
VWRAWAINGTATWCLIGDHG	inactive
LVAGSTRTSLLVLRALGAWL	inactive
YETYKYLYGFVML	inactive
KLPNYLYRLSLFPVTLVSTM	inactive
SCRLLNFIICIGWVWGFDVS	inactive
VSSATTTMARRIHCFRVSRV	inactive
MLCLWFNEFHDVCPT	inactive
RSSPEDPLTSFLGYTGMTAS	inactive
LRAICKSCGVASGYVAAPRA	-0.478 ± 0.52
CRYSYSELKFVLFSGVGTSD	inactive
TKAYGCIHTDRRDSQLKFSA	inactive
AFFWCR	0.314 ± 0.25
AVSSSLNWLGFVRISGSRY	-0.432 ± 1
